Experimental data published in patent US20190117751A1 (SAPPORO MEDICAL UNIVERSITY, published 2019).
Blank lines part the entries; values can stand above or below the binder they belong to.

Tests used:
[1] = target: T1, HLA-A24 molecule on the cell surface (HLA-A*2402) (human); experiment: not clear: FIG. 7 has no binding assay panel
T1 construct: also called HLA-A24 antigen

[2] = target: T1, HLA-A24 molecule on the cell surface …; experiment: HLA-A24 stabilisation assay on T2-A24 cells, flow cytometry with C7709A2
Procedure: T2-A24 cells, which are HLA-A24-expressing T2 cells, were preincubated in a CO₂ incubator at 27° C. overnight. The cells collected were resuspended in Opti-MEM and plated on a round bottom 96 well plate (Corning) with about 1×10⁵ cells/200 μL per well. A subject peptide was added at concentrations of 0.33 μM, 1 μM, and 10 μM, and incubation was carried out in a CO₂ incubator at 27° C. for 3 hours and subsequently at 37° C. for 2.5 hours. Subsequently, the cells were subjected to centrifugation (380 g, 5 minutes) as they were on the plate, resuspended in 100 μL of a C7709A2 monoclonal antibody-producing hybridoma culture supernatant, and incubated on ice for 45 to 60 minutes. The cells were washed with ice-cooled PBS and then incubated together with an FITC-conjugated goat anti-mouse IgG antibody (KPL, Gaithersburg, Md.) on ice for 30 minutes.

- binding result [1]: binds
B1: SNRNP40-derived natural peptide of SEQ ID No: 4 (IFQGNVHNF) (peptide)
peptide: IFQGNVHNF
notes: Synthetic peptide

- binding result [2]: binds
B2: PVT1-derived natural antigen peptide of SEQ ID No: 1 (HWNDTRPAHF) (peptide)
peptide: HWNDTRPAHF
notes: also called HF10

- binding result [2]: binds
B3: SUV39H2-derived natural antigen peptide of SEQ ID No: 2 (RYGNVSHF) (peptide)
peptide: RYGNVSHF
notes: Synthetic peptide; also called RF8
